Results from publication PMC7581431.
Each block holds one substance with its values, some of them ahead of it.

Assays:
[1] = molecular target: Lip-NKD-HisC (human (identical sequence in mouse and human)) (UniProt Q969G9); test: aggregation and co-aggregation assay read by PAGE; purified proteins in 15 mM acetate, 150 mM NaCl, pH 5.0 mixed in different ratios; after 10 min 1 M Tris-HCl pH 8.0 added to 200 mM; after 20 min boiled 10 min in LDS sample buffer; PAGE under denaturing and reducing conditions
Lip-NKD-HisC (human (identical sequence in mouse and human)), sequence (Q969G9 whole entry): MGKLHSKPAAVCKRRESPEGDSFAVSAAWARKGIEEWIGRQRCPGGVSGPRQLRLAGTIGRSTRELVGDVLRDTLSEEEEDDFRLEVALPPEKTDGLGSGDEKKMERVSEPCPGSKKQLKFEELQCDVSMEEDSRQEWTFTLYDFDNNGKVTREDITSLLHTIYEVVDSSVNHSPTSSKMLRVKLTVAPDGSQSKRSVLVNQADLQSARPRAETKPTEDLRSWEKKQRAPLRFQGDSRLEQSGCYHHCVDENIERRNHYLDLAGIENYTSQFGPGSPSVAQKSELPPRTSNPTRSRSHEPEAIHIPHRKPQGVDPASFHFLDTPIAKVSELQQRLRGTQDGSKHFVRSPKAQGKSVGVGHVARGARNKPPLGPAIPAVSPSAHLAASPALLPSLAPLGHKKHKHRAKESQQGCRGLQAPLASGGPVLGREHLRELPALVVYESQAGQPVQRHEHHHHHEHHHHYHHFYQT

CK1ε = test: BioID proximity labeling (mass spectrometry); details: +Wnt3a
[2] = molecular target: CELSR1 [human (endogenous in Flp-In-T-REx-293)]; test: BioID proximity labeling (mass spectrometry); details: +Wnt3a
[3] = molecular target: Notch2 [human (endogenous in Flp-In-T-REx-293)]; test: BioID proximity labeling (mass spectrometry); details: +Wnt3a

Substance: MBP-Axin1-HisC (from UniProt O15169 1-862) (domain or fragment)
molecules per core (molecules per core) [1]: < 5

Substance: Nkd1-BirA* mutant G2A [murine] / CELSR1 [human (endogenous in Flp-In-T-REx-293)] chain 1 G2A
response (unweighted spectral counts) [2]: 1

Results, then the substance that gave them:

stoichiometry N [1]: 10
Substance: Lip-NKD-HisC (from UniProt Q969G9 1-470) (domain or fragment)

response (unweighted spectral counts) (CK1ε): 8
Substance: Nkd1-BirA* (from UniProt Q99MH6) G2A

response (unweighted spectral counts) [3]: 1
Substance: Nkd1-BirA* mutant G2A [murine] / Notch2 [human (endogenous in Flp-In-T-REx-293)] chain 1 G2A
